Measured values taken from patent publication US20200207859A1 (priority 2017, published 2020).

Tests used:
[1] = system: MM.1S multiple myeloma cells; experiment: Disseminated MM.1S multiple myeloma model; format: in vivo, mouse; details: NSG mice; for survival: MM.1S i.v., day 129 post inoculation; for tumor burden: hCD138+ myeloma cells in the bone marrow / hCD138+ cells in the bone marrow: MM.1S; for tumor burden: hCD138+ myeloma cells in the bone marrow: day 32; for hCD138+ cells in the bone marrow: day 129
Description: Female NOD SCID gamma (NSG) mice 8 weeks of age were inoculated with multiple myeloma MM.1S cells into the tail vein. Randomization by body weight and start of treatment was initiated 11 days post tumor inoculation. Treatment groups are outlined in Table 5. Test articles were formulated in 10 mM citrate, pH 6.0, 10% sucrose and diluted in PBS for administration. […] For each group, a subset of animals was used for bone marrow harvest and analysis (n=3) and the remaining animals (n=5) were monitored for survival. Survival endpoint was characterized by >20% body weight loss and clinical signs including lethargy, hind limb paralysis or moribundity. On day 32 (3 weeks after start of treatment), 3 animals from each group were randomly chosen to be euthanized for bone marrow harvest (pooled from tibia and femur) for flow cytometry. On day 129 (˜4 months after start of treatment), all surviving animals were euthanized and bone marrow was harvested (pooled from tibia and femur) for flow cytometry.
Body weights were monitored at least twice per week for up to 129 days. All graphs are presented as mean±standard error of the mean (SEM) versus days post-treatment start.
Percent body weight change (BWC) is calculated relative to weight on the day of treatment. Substantial toxicity was defined as a >20% decrease in animal weight, at which point affected animals are euthanized.
Bone marrow cells from mouse femur and tibia were pooled and assessed for human CD138 expression using the Alexa Fluor 647 mouse anti-human CD138 clone MI15 (BD Biosciences #562097) according to the manufacturer's protocol. CD138 is a specific surface antigen for MM and plasma cells in the bone marrow (Chilosi, M. et al. (1999), supra). Direct immunofluorescence flow cytometric analysis was performed using an LSRII flow cytometer and FACS Diva Software. Data was analyzed using Flowjo (Tree Star, Inc., Ashland, Oreg.).
Human CD138+ cells in the bone marrow on day 32 was analyzed using one-way analysis of variance (ANOVA) with a Dunnett's adjustment at 0.05 significance level. Data from MM.1 s positive control were excluded from analysis. A probability of less than 5% (p<0.05) was considered as significant.

[2] = system: Jurkat T leukemia cells; experiment: T lymphoma cell line cell killing assay; format: cell-based; design: key to Cell killing Span: NC = Not Calculable; NK = No Killing; details: 120 hours
Description: (§1) A total of 12500 cells in a volume of 25 μL were seeded in a 384-well flat bottom white polystyrene plate the day before the assay. […] Filter-sterilized compounds were serial diluted in culture medium and 25 μL of the compounds were added into treatment wells in quadruplicates. Plates were cultured at 37° C. in a CO2 incubator for 120 hours. For cell viability measurement, 30 μL of Cell Titer-Glo® reagent (Promega Corp.; Madison, Wis.) was added into each well, and plates were processed per product instructions. Relative luminescence was measured on an ENVISION® plate reader (Perkin-Elmer; Waltham, Mass.). Relative luminescence readings were converted to percent (%) viability using untreated cells as controls. Data was fitted with non-linear regression analysis, using log(inhibitor) vs. response, variable slope, 4-parameter fit equation using GraphPad Prism (GraphPad v 5.00, Software; San Diego, Calif.). Data was expressed as percent (%) relative cell viability (average of the quadruplicates) vs. dose of compounds in units of nanomolar (nM). Cell killing EC50 values and span were calculated by Prism in order to evaluate the potency of each compound on each cell line.

[3] = system: MJ T lymphoma cells; experiment: T lymphoma cell line cell killing assay; format: cell-based; design: key to Cell killing Span: NC = Not Calculable; NK = No Killing; details: 120 hours
Description: as §1

[4] = system: K562 (CML); experiment: Cell killing assay (cell proliferation, Cell Titer-Glo); format: cell-based; design: key to Cell Killing Activity Span: NK = no killing; NB = no binding; details: 72 hrs
Description: (§2) Cytotoxicity effects of the free drug linkers and conjugates were measured with a cell proliferation assay. A total of 12500 cells in a volume of 25 μl were seeded in a 384-well flat bottom white polystyrene plate on the day of assay. Free drug-linkers and conjugates were formulated at 2× starting concentration (1000 nM for free drug linkers and 100 nM for ADCs) in RPMI medium and filtered through MultiScreen HTS 96-Well Filter Plates (Millipore). Filter sterilized samples were serial diluted (1:3) under sterile conditions and added into treatment wells. Plates were cultured at 37° C. in a CO2 incubator for 72 hrs. For cell viability measurement, 30 μl of Cell Titer-Glo® reagent (Promega Corp.) was added into each well, and plates processed as per product instructions. Relative luminescence was measured on an ENVISION® plate reader (Perkin-Elmer; Waltham, Mass.). Relative luminescence readings were converted to % viability using untreated cells as controls. Data was fitted with non-linear regression analysis, using log(inhibitor) vs. response, variable slope, 4 parameter fit equation using GraphPad Prism. Data was expressed as % relative cell viability vs. dose of free drug-linker or conjugate in nM.

[5] = system: OPM-2 (MM); experiment: as above; format: cell-based; design: key to Cell Killing Activity Span: NK = no killing; NB = no binding; details: 72 hrs
Description: as §2

[6] = system: RPMI-8226 (MM); experiment: as above; format: cell-based; design: key to Cell Killing Activity Span: NK = no killing; NB = no binding; details: 72 hrs
Description: as §2

B1: Conjugate A: anti-CD74 IgG with pAMF at heavy chain EU position 404 conjugated to DBCO-PEG4-maytansine (conjugate)
VH: QVQLVESGGGVVQPGRSLRLSCAASGFNFSDYGMHWVRQAPGKGLEWVAVIWYDGSISYYADSVKGRFTISRDNSKNTLYLQMNSLRAEDTAVYYCARGGTVEHGAVYGTDVWGQGTTVTVSS
VL: DIQMTQSPSSVSASVGDRVTITCRASQGIGSWLAWYQQKPGKAPKLLIYAADRLQSGVPSRFSGSGSGTDFTLTISSLQPEDFATYYCQQYHTYPLTFGGGTKVEIK
modifications: non-natural residues
survival ([1]; 3 mg/kg q7dx3 IV): 100% | survival ([1]; 10 mg/kg q7dx3 IV): 100% | tumor burden: hCD138+ myeloma cells in the bone marrow ([1]; 3 mg/kg q7dx3 IV): significantly reduced tumor burden | hCD138+ cells in the bone marrow ([1]; 3 mg/kg q7dx3 IV): no hCD138+ cells were detected | tumor burden: hCD138+ myeloma cells in the bone marrow ([1]; 10 mg/kg q7dx3 IV): significantly reduced tumor burden | hCD138+ cells in the bone marrow ([1]; 10 mg/kg q7dx3 IV): no hCD138+ cells were detected | Cell killing Span [2]: NK | EC50 [2]: > 50 nM | cell killing activity (in words) [2]: No cell killing was observed | Cell killing Span [3]: NC | cell killing activity (in words) [3]: less potent cell killing | Cell Killing Activity Span [4]: NK | IC50 [4]: > 50 nM | Cell Killing Activity Span [5]: NK | IC50 [5]: > 50 nM | Cell Killing Activity Span [6]: NK | IC50 [6]: > 50 nM
